According to patent US8865222B2, “Beta-casein assemblies for enrichment of food and beverages and methods of preparation thereof” (Technion Research and Development Foundation Ltd., priority 2008, dated 2014):
“Also recorded” adds a separate entry of the source.

Key:
Format in all cases: physicochemical
[1] = Cryo-TEM of beta-casein micelles and vitamin D loaded assemblies
Method: • Cryo-TEM: Specimens were prepared in the controlled environment vitrification system (CEVS) (Bellare et al. Electron Microsc. Technique, 1988, 10; 87-111) at 24° C. and 100% relative humidity to avoid loss of volatiles. First, the solutions were incubated in the CEVS at the desired temperature for 1 h. Then, a 7 μL drop of each solution was placed on a TEM copper grid covered with a perforated carbon film (Pelco International) and blotted with filter paper to form a thin liquid film of the sample (100-200 nm thick). The thinned sample was plunged into liquid ethane at its freezing temperature (−183° C.) to form a vitrified specimen and then transferred to liquid nitrogen ([…]) for storage. The vitrified specimens were examined in a Philips CM120 transmission electron microscope operating at an accelerating voltage of 120 kV. We used an Oxford CT3500 (Oxford Instruments) cryoholder that maintained the specimens below −175° C. during sample transfer and observation. Images were recorded digitally on a cooled Gatan MultiScan 791 CCD camera using DigitalMicrograph 3.1 software (Gatan) in the low-dose imaging mode to minimize beam exposure and electron-beam radiation damage. • ITC: ITC measurements were performed with a VP-ITC calorimeter (MicroCal) at a temperature of 24° C. The reaction cell (V=1.43 mL) was filled with degassed solvent (lactic acid at pH 2.6, or phosphate buffer at pH 7.0). The injector-stirrer syringe (289 μL) was loaded with a beta-casein micellar solution (20 mg/mL). The micellar solution was injected into the reaction cell in 28 steps of 10 μL aliquots each, and the heat flow was measured. During the titration, the stirring speed was 310 rpm. The duration of each injection was 20 s, and the equilibration time between consecutive injections was 3 min. Such an interval was sufficient to equilibrate the reaction cell after every injection. Each experiment was performed at least three times. Calorimetric data analysis was carried out using Origin 5.0 software (MicroCal). • Analytical Ultracentrifugation: Sedimentation equilibrium experiments were performed at 24° C. using a Beckman Optima XL-A (Palo Alto, Calif.) analytical centrifuge at 6000, 10000, and 12000 rpm for the low-pH solutions and at 4000, 6000, and 8000 rpm for the pH 7.0 solutions. Data were collected at 280 nm. The beta-casein solutions were studied at concentrations ranging from 0.2 to 10.0 mg/mL at pH 2.6 and from 0.2 to 2 mg/mL at pH 7.0 and an ionic strength of 0.1. […] The average apparent molecular weight of the micelles at the various protein concentrations was calculated following methods well known in the art (The partial specific volume vj of the solute was taken to be 0.742 cm3/g3, and a solution density F of 1.0044 g/cm3 was measured). At beta-casein concentrations of 2 mg/mL and above under low pH conditions, the plot of the natural logarithm of the measured absorbance versus the square of the radius from the axis of rotation was not linear. To estimate Nagg, the limiting slope toward the outer edge of the sample cell was used to provide dln(c)/dr^2. The molecular weight calculated using this slope was divided by the monomer molecular weight calculated from the beta-casein amino acid sequence (24000).
• Characterization of the beta-casein micelles by cryo-TEM: The structural characteristics of the micelles in the two pH environments were studied by cryo-TEM and SAXS. Cryo-TEM was used to determine the shape of the micelles and to estimate their dimensions between 4 and 40° C. This information was further used to accurately calculate by SAXS the micelles' dimensions and to study how the size and shape are affected by temperature. SAXS measurements also provided the critical micelle concentration (CMC) and the micelle aggregation numbers as a function of temperature. […]

[2] = Dynamic light scattering (DLS) particle size; conditions: pH 2.6, pure beta-casein, FIG. 12
Method: The pure beta-casein micelles remain small, below 80 nm, consistent with the fact the solution remains transparent.
The particle size distribution and the turbidity of a vitamin D loaded beta-casein micellar solutions at pH 7.0 and pH 2.5 as a function of beta-casein concentration are shown in FIGS. 15 and 16 respectively. Vitamin D concentration in this experiment was kept constant (82.5 μg/ml; 0.2 mM) and the beta-casein concentration was raised gradually from 0 to 2% by weight (0 to 0.8 mM). […] This value is relatively low and the solutions looked transparent to the human eye.

[3] = Storage stability of beta-casein assembly solutions
Method: Preparation of beta-casein assemblies: weighted amounts of lyophilized bovine beta-casein are dissolved in low-pH solution (e.g. ˜6% by weight of lactic acid solution or hydrochloride acid solution, ˜pH 2.1), typically at concentrations ranging from 0.1 mg/mL up to at least 50 mg/ml, to the desired pH (2.5-2.8), below the pI. The pH can be adjusted to the desired values using appropriate buffers. Mixing is done at room temperature, and the solution is equilibrated at 4° C. for ˜36 hr, allowing complete solubilization and formation of the protein assemblies. Thereafter, the solutions can be held at any temperature between 1 and 60° C. Similarly, to prepare beta-casein micelles at neutral pH, weighted amounts of lyophilized protein are added to a buffer at neutral pH (e.g., HEPES buffer, or PBS), at concentration ranging from 0.1 mg/ml to ˜40 mg/ml. Complete solubilization of the protein is achieved within ˜36 hr, at 4° C. A transparent solution is obtained, containing unique nano-sized beta-casein assemblies. The protein solutions are filtered through a porous membrane of 0.45 micron pore size. The beta-casein concentration was determined by measuring the absorbance at 280 nm by an Ultrospec 2000 UV/Visible spectrophotometer (Pharmacia Biotech, England), using an extinction coefficient of 4.6(1%) mM^−1cm^−1. […]

[4] = lactic acid solution pH 2.6, 4-40 °C

B1: beta-casein: lyophilized bovine beta-casein (~24 kDa milk protein) self-assembled into nano-sized micelles at low or neutral pH (protein, UniProt P02666 16-224, looked up)
Beta-casein: RELEELNVPGEIVESLSSSEESITRINKKIEKFQSEEQQQTEDELQDKIHPFAQTQSLVYPFPGPIPNSLPQNIPPLTQTPVVVPPFLQPEVMGVSKVKEAMAPKHKEMPFPKYPVEPFTESQSLTLTDVENLHLPLPLLQSWMHQPHQPLPPTVMFPPQSVLSLSQSKVLPVPQKAVPYPQRDMPIQAFLLYQEPVLGPVRGPFPIIV
**Q.** Which results are given for B1?
**A.** micelle shape ([1]; 20 mg/mL, pH 6.7, 0.05M NaCl, 4 °C and 10 °C): Flat micelles; micelle shape ([1]; 20 mg/mL, pH 6.7, 0.05M NaCl, 16, 25 and 40 °C): oblate micelles; micelle shape ([1]; 20 mg/mL, pH 6.7, 0.05M NaCl, 60 °C): Relatively spheroidal micelles; length of elongated surfaces of micelles [1, 4]: 20-25 nm; micelle shape [1, 4]: flat disk-like micelles; micelle thickness [1, 4]: 3-4 nm; width of micelles ([1]; pH 2.6): about 3.5 nm; mean size of the assemblies [2]: below 80 nm; colloidal / storage stability of sterile solution ([3]; sterile): at least several months; also recorded: colloidally stable for months; storage stability of the solution ([3]; stored at 4 °C): several weeks
